Source: publication PMC11182015, “Cytosolic RNA binding of the mitochondrial TCA cycle enzyme malate dehydrogenase”

Target: T1, MDH2 preprotein (malate dehydrogenase 2, mitochondrial), with N-terminal MTS (Homo sapiens, UniProt P40926 1-338)
T1 sequence: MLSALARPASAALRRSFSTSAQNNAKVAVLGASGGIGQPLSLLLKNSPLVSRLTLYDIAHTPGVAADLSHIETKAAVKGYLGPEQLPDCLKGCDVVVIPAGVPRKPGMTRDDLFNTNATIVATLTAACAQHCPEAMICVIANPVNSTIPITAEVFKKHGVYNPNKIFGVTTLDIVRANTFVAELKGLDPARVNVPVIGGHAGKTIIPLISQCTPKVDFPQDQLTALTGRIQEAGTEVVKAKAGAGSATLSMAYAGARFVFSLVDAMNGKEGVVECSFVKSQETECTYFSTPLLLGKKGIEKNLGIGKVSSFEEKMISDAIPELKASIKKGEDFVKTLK
Experiment: EMSA; RNA 10 nM; EMSA: 10 mM Tris-HCl pH 7.5, 150 mM NaCl, 20% glycerol, 0.5 mM DTT, 5 mM MgCl2, 0.01 ug/uL BSA, 25 C 20 min; 10 nM Cy5-RNA; native 4-15% Tris-glycine gel
Settings: protein: recombinant; tags: C-terminal Strep-II; label: Cy5

Question: AUAUUUAGCUCAGGCCCGUGGCGCC (ssRNA) [RPS23 5'-UTR control probe] was tested. Which Kd did it give?
Answer: 1500 nM
